This is an account of results in paper PMC1807977 (Nucleic Acids Research, 2007).

Data set [1] has as its target T1, CBP-tagged Tfb2 (purified yeast Tfb2 protein) (S. cerevisiae, UniProt Q02939 1-513).
T1 sequence (looked up): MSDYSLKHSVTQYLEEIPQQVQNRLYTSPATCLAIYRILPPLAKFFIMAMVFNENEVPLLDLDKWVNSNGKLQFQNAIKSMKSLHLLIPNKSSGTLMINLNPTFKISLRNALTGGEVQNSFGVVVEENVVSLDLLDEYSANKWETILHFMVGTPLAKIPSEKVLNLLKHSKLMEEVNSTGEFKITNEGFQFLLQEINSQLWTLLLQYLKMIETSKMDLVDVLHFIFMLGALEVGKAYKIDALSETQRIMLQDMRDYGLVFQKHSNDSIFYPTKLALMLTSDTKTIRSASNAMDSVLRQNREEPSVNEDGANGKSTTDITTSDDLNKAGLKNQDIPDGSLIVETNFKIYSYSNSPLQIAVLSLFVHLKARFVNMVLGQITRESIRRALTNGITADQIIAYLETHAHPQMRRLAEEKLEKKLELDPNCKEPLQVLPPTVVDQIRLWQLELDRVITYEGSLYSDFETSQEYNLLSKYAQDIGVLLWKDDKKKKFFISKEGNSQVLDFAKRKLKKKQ
As to the kind of experiment: pull-down.

Data set [2] deals with T1, CBP-tagged Tfb2 (purified yeast Tfb2 …). The experiment in a line: co-IP.
The target in another data set is T2, Tfb5 (Saccharomyces cerevisiae, UniProt Q3E7C1 1-72).
T2 sequence: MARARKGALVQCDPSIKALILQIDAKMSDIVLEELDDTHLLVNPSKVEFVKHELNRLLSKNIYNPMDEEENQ
As to the kind of experiment: EMSA. (In general: Mobility shift assays separate free from complexed probe on a gel.)

B1: His6-Tfb5ΔC14 (domain or fragment, S. cerevisiae, UniProt Q3E7C1 1-58, looked up)
chain: MARARKGALVQCDPSIKALILQIDAKMSDIVLEELDDTHLLVNPSKVEFVKHELNRLL
On to B1, for which, in data set [1], the binding result is given as “binds”.

B2: His6-Tfb5 (purified yeast Tfb5 protein) (natural protein, S. cerevisiae, UniProt Q3E7C1 1-72, looked up)
chain: MARARKGALVQCDPSIKALILQIDAKMSDIVLEELDDTHLLVNPSKVEFVKHELNRLLSKNIYNPMDEEENQ
For the molecule B2, the binding result in data set [2] is “binds”.

B3: His6-Tfb5ΔN7 (domain or fragment, S. cerevisiae, UniProt Q3E7C1 8-72, looked up)
chain: ALVQCDPSIKALILQIDAKMSDIVLEELDDTHLLVNPSKVEFVKHELNRLLSKNIYNPMDEEENQ
With B3, in data set [1], the binding result was “binds”.

B4: 79mer ss (ssDNA)
DNA: GGAATTCCGGAATTACAGGCTCTAACACCGAATTACAGGCTCTAACACCGTCTCATCTTCGCTCGTCCACTTTTTTTCG
For the molecule B4, the binding result with Tfb5 was “no binding”.
